B1: Partner of xrn-2 protein 1 (Caenorhabditis elegans), Q21738 (parent)
chain: MGKLEDVEAEKKLWESDDAWELRKAFMLAHYDDYPKIQLQCLSQLFINVTLLGCEYSQTLMQKIRTMGAGIAANKDRTKTGSYVKASAAKKRQAVKTSDLEGASDESKKVKMEKSPSPVARESFDERLGKLKASLAMTPHHLTGEQMMKTATNSCLMKWHVNKINQKIEITIDRYVAFRHTFSQYCVDPRDCAINTLIESILSCDAAVHEESYEIRFDGVPVDECYAKSVTRRLAKIKSAVSNGAHTVKGLTTYLDAVNMSMIQNTQKLEGWSQQLDLVTADLLLSSRVLSSTECTKPAMATIANQMSEDVCQLILNDKINVINSMKSHSSLAFQ
partner: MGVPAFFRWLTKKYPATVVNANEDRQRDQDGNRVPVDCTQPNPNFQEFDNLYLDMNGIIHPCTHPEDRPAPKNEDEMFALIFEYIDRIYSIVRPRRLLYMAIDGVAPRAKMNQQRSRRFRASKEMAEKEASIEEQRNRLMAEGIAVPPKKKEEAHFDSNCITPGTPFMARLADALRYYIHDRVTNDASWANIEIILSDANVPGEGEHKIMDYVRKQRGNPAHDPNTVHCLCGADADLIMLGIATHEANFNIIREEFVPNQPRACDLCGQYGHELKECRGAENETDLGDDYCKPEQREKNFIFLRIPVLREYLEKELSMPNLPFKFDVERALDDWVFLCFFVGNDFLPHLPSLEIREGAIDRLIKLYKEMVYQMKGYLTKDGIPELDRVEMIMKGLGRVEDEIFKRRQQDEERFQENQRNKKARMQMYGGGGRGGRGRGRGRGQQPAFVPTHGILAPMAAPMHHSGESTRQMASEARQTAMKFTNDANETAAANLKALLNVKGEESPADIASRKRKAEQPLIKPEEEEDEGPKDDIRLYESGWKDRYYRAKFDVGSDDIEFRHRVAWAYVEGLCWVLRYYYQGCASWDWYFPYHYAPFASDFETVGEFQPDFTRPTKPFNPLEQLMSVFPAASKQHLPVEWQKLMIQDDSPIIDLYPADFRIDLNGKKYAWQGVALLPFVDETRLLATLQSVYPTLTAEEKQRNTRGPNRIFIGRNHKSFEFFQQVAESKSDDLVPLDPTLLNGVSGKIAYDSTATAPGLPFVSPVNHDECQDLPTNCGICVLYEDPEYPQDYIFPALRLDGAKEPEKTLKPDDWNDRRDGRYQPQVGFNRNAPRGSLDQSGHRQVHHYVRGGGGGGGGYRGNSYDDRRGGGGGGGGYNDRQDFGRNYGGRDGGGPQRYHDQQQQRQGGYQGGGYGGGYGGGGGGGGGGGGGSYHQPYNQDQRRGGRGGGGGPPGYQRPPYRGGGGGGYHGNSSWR
B2: CDKN2AIP N-terminal-like protein (Homo sapiens), Q96HQ2 (parent)
chain: MVGGEAAAAVEELVSGVRQAADFAEQFRSYSESEKQWKARMEFILRHLPDYRDPPDGSGRLDQLLSLSMVWANHLFLGCSYNKDLLDKVMEMADGIEVEDLPQFTTRSELMKKHQS
partner: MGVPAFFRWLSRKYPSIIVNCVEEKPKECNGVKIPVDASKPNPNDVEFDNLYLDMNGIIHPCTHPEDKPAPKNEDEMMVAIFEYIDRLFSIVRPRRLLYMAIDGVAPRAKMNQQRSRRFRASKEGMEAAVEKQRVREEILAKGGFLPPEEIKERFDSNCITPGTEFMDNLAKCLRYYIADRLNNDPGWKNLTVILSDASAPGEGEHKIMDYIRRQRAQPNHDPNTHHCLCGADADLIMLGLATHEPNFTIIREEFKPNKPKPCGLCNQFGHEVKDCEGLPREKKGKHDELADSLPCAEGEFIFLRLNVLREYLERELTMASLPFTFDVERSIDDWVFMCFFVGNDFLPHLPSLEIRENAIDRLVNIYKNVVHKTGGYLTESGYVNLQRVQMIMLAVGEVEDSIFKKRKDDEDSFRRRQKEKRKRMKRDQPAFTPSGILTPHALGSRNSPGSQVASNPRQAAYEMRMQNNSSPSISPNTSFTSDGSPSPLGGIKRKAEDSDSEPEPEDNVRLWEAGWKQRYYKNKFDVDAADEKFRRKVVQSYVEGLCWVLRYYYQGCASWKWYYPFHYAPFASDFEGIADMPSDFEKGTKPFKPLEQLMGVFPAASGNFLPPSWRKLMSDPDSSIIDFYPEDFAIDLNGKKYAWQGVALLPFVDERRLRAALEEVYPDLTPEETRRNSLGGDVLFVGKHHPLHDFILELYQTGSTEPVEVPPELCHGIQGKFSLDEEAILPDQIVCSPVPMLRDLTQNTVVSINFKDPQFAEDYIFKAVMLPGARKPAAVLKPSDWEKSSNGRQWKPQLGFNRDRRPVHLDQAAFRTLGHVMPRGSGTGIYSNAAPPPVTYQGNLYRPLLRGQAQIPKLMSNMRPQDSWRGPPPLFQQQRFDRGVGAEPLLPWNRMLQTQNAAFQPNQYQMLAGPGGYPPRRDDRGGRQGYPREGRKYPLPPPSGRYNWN

The variants in the first experiment derive from B1. As to conditions: with xrn2_caeel xrn-2, Q9U299.
Regarding Y56A, the “effect of a mutation on the interaction” value is listed as “disrupting interaction strength”.

Consider C54A, for which the “effect of a mutation on the interaction” value was “disrupting interaction strength”.

The next experiment covers variants of B2. As to conditions: with xrn2_human XRN2, Q9H0D6.
Take Y81A: the “effect of a mutation on the interaction” value is recorded as “disrupting interaction strength”.

For the origin of these results see IntAct's records for PubMed 26779609.
